In US5719039A, “Enzyme-surfactant ion-pair complex catalyzed reactions in organic solvents” (University of Iowa Research Foundation, priority 1995, dated 1998):

Key:
[1] = molecular target: CT (Bos taurus, UniProt P00766); assay: Transesterification with CT pre-inactivated by PMSF; assay type: biochemical; conditions: PMSF 0.3 mM
Experimental: Values for kcat /Km were determined by nonlinear fit of the kinetic data and represent averages of triplicate measurements with standard deviations in each case of less than 5%. Initial rates of formation of N-acetyl-L-phenylalanine propyl ester were determined by gas chromatography (530-μm fused silica gum (Hewlett-Packard)). […] Saturation kinetics could not be determined for reactions with CT suspended in isooctane as the solubility limit for the substrate in this solvent is substantially below the Km of the enzyme.

[2] = Extraction of enzyme from aqueous solution into isooctane containing 2 mM AOT; assay type: physicochemical
[3] = source not stated; cited from earlier work
[4] = source not stated; cited from earlier work; remark: listed apart in the source
[5] = 1 mg/ml aqueous enzyme, pH 7.8, 2 mM CaCl2, 2 mM AOT in isooctane

Molecule | reaction with pre-inactivated CT [1] | Extraction Yield (enzyme in organic phase) [2, 5] | pI [3] | pH of maximal activity [4] | Extraction Yield (enzyme in organic phase) ([2]; 0.5 mg/ml aqueous papain, pH 7.8, CaCl2, MnCl2, KCl, 2 mM AOT in isooctane) | extraction ([2]; 1 mg/ml aqueous solution, pH 7.8, 2 mM AOT in isooctane)
O=S(=O)(F)Cc1ccccc1 [phenylmethanesulfonyl fluoride] | No reaction was observed | – | – | – | – | –
subtilisin Carlsberg: subtilisin Carlsberg (from Bacillus licheniformis) (protein, UniProt P00780 106-379, looked up) Subtilisin Carlsberg: AQTVPYGIPLIKADKVQAQGFKGANVKVAVLDTGIQASHPDLNVVGGASFVAGEAYNTDGNGHGTHVAGTVAALDNTTGVLGVAPSVSLYAVKVLNSSGSGSYSGIVSGIEWATTNGMDVINMSLGGASGSTAMKQAVDNAYAKGVVVVAAAGNSGSSGNTNTIGYPAKYDSVIAVGAVDSNSNRASFSSVGAELEVMAPGAGVYSTYPTNTYATLNGTSMASPHVAGAAALILSKHPNLSASQVRNRLSSTATYLGSSFYYGKGLINVEAAAQ | – | 0.3 mg/mL | 8.5 | ~7.8 | – | –
papain: papain, pI of about 8.75 and maximal activity at pH 7.8 (protein, UniProt P00784 134-345, looked up) Papain: IPEYVDWRQKGAVTPVKNQGSCGSCWAFSAVVTIEGIIKIRTGNLNEYSEQELLDCDRRSYGCNGGYPWSALQLVAQYGIHYRNTYPYEGVQRYCRSREKGPYAAKTDGVRQVQPYNEGALLYSIANQPVSVVLEAAGKDFQLYRGGIFVGPCGNKVDHAVAAVGYGPNYILIKNSWGTGWGENGYIRIKRGTGNSYGVCGLYTSSFYPVKN | – | – | about 8.75 | 7.8 | 0.35 mg/mL | –
Subtilisin BPN': subtilisin BPN' (from Bacillus amyloliquefaciens) (protein, UniProt P00782 108-382, looked up) Subtilisin BPN': AQSVPYGVSQIKAPALHSQGYTGSNVKVAVIDSGIDSSHPDLKVAGGASMVPSETNPFQDNNSHGTHVAGTVAALNNSIGVLGVAPSASLYAVKVLGADGSGQYSWIINGIEWAIANNMDVINMSLGGPSGSAALKAAVDKAVASGVVVVAAAGNEGTSGSSSTVGYPGKYPSVIAVGAVDSSNQRASFSSVGPELDVMAPGVSIQSTLPGNKYGAYNGTSMASPHVAGAAALILSKHPNWTNTQVRSSLENTTTKLGDSFYYGKGLINVQAAAQ | – | 0.4 mg/mL | 9.4 | 7.8 | – | 40%
